The target of the data set is T1, PEG10 gag.
T1 chain: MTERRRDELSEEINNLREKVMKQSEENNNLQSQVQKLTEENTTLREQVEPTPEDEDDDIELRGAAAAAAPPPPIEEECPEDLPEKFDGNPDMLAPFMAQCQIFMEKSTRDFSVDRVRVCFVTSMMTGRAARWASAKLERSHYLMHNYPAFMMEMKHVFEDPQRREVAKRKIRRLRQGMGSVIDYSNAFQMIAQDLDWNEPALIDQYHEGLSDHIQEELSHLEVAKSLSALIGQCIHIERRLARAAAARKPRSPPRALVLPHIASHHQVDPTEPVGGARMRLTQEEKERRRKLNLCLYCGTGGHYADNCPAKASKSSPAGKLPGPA

B1: PEG10 gag-pol (protein)
chain: MTERRRDELSEEINNLREKVMKQSEENNNLQSQVQKLTEENTTLREQVEPTPEDEDDDIELRGAAAAAAPPPPIEEECPEDLPEKFDGNPDMLAPFMAQCQIFMEKSTRDFSVDRVRVCFVTSMMTGRAARWASAKLERSHYLMHNYPAFMMEMKHVFEDPQRREVAKRKIRRLRQGMGSVIDYSNAFQMIAQDLDWNEPALIDQYHEGLSDHIQEELSHLEVAKSLSALIGQCIHIERRLARAAAARKPRSPPRALVLPHIASHHQVDPTEPVGGARMRLTQEEKERRRKLNLCLYCGTGGHYADNCPAKASKSSPAGKLPGPAVEGPSATGPEIIRSPQDDASSPHLQVMLQIHLPGRHTLFVRAMIDSGASGNFIDHEYVAQNGIPLRIKDWPILVEAIDGRPIASGPVVHETHDLIVDLGDHREVLSFDVTQSPFFPVVLGVRWLSTHDPNITWSTRSIVFDSEYCRYHCRMYSPIPPSLPPPAPQPPLYYPVDGYRVYQPVRYYYVQNVYTPVDEHVYPDHRLVDPHIEMIPGAHSIPSGHVYSLSEPEMAALRDFVARNVKDGLITPTIAPNGAQVLQVKRGWKLQVSYDCRAPNNFTIQNQYPRLSIPNLEDQAHLATYTEFVPQIPGYQTYPTYAAYPTYPVGFAWYPVGRDGQGRSLYVPVMITWNPHWYRQPPVPQYPPPQPPPPPPPPPPPPSYSTL
Regarding B1, the “presence of HA-tagged cleavage products by western blot after co-transfection” value is “PEG10 gag-pol was capable of cleaving PEG10 gag in trans”.
